In this assay the target is 重组蛋白hVEGF-Fc (human). Briefly: cell-based or functional assay.
Chain of 重组蛋白hVEGF-Fc (human) (chain, as listed by the source limits assumed): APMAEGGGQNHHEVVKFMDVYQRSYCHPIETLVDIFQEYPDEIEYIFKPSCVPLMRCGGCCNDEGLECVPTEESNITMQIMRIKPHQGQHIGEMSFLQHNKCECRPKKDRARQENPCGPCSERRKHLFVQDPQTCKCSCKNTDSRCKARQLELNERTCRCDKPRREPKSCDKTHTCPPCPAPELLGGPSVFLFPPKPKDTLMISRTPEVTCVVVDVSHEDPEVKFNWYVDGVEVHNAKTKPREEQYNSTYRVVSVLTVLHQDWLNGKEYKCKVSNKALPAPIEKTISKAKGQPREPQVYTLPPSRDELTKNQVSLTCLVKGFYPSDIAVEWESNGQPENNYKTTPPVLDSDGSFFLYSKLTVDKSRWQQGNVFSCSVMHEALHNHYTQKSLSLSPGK

The substance Faricimab (bispecific antibody) had a 中和VEGF活性IC 50 of 0.582 nM.

The values above are taken from CN116265487A.
